B1: C58 Atu3234 gene: recombinant scyllo-inositol dehydrogenase, Atu3234 gene product of Agrobacterium tumefaciens C58 ATCC33970, SEQ ID NO: 6 (protein)
chain: MAIEGKTTDVANKRIRLGMVGGGSGAFIGGVHRMAARLDNRFDLVAGALSSTPEKSLASGRELGLDSERCYGSFEEMAEKEALREDGIEAVAIVTPNHVHYPAAKAFLERGIHVICDKPLTSNLEDAKKLKDVADKADALFILTHNYTGYPMVRHARELVEAGALGNIRLVQMEYPQDWLTEAVEQTGAKQAVWRTDPAQSGVGGSTGDIGTHAYNLGCFISGLEADELAADVHTFVEGRRLDDNAHVMMRFKPKGGKQPARGMLWCSQVAVGHENGLKIRLYGDKAGLEWTQADPNYLWFTKLGEPKQLITRGGAGAGAAAARVTRIPSGHPEGYLEAFATIYTEAAHAIEARRTGSALDKAVIYPTVDDGVKGVAFVTACIESGKKNGGWVKL
modifications: Agrobacterium tumefacience
B2: ydgJ gene: recombinant scyllo-inositol dehydrogenase, ydgJ gene product of Escherichia coli K12 ATCC10798, SEQ ID NO: 2 (protein, listed as Escherichia coli)
chain: MSDNIRVGLIGYGYASKTFHAPLIAGTPGQELAVISSSDETKVKADWPTVTVVSEPKHLFNDPNIDLIVIPTPNDTHFPLAKAALEAGKHVVVDKPFTVTLSQARELDALAKSLGRVLSVFHNRRWDSDFLTLKGLLAEGVLGEVAYFESHFDRFRPQVRDRWREQGGPGSGIWYDLAPHLLDQAITLFGLPVSMTVDLAQLRPGAQSTDYFHAILSYPQRRVILHGTMLAAAESARYIVHGSRGSYVKYGLDPQEERLKNGERLPQEDWGYDMRDGVLTRVEGEERVEETLLTVPGNYPAYYAAIRDALNGDGENPVPASQAIQVMELIELGIESAKHRATLCLA
B3: C58 Atu4375 gene: recombinant scyllo-inositol dehydrogenase, Atu4375 gene product of Agrobacterium tumefaciens C58 ATCC33970, SEQ ID NO: 4 (protein)
chain: MSSATKKFDSRRIRLGMVGGGQGAFIGAVHRIAARLDDRYELVAGALSSDPARAAASATLLGIAPERSYASFEDMAATEAGREDGIEAVAIVTPNHLHFAPSKAFLEAGIHVICDKPVTATLEEAKALAGIVRASDSLFVLTHNYTGYAMLRQMREMIAEGAIGKLRHVQAEYAQDWLTEAVEKTGAKGAEWRTDPSRSGAGGAIGDIGTHAFNAAAFVTGEIPSSLYADLTSFVPGRQLDDSANILLRYDSGAKGMLWASQIAVGNENALSLRVYGDKGGLEWHHRVPDELWFTPYGEPKRLITRNGAGAGAAANRVSRVPSGHPEGYLEGFATIYREAADAIIAKREGETAAGEVIYPGMEDGLAGLAFIDAAVRSSQTSTWVGIDI
modifications: Agrobacterium tumefacience

Experiments:
Format in all cases: biochemical
[1] = Optimum pH of scyllo-inositol dehydrogenase; settings: 200 mM phosphate buffer (pH 5.0 to 9.0); 90% or more of the maximum activity
Experimental: The optimum pH can be confirmed by: mixing 5 μl of a reaction solution (200 mM […] of pH 5.0 to 9.0 containing 2% of NADPH, and 1% of scyllo-inosose) and 5 μl of an enzyme solution; allowing the mixture to react at 36° C. for 30 minutes; adding 500 μl of water immediately after the completion of the reaction; determining the absorbance at 340 nm; and determining a decrease in the absorbance at 340 nm with respect to a blank value of a test solution containing water instead of the enzyme solution. The term “optimum pH” means a pH at which the enzyme has 90% or more of the maximum activity. The enzyme of the present invention can be divided depending on, for example, a range of the optimum pH into groups each having: an optimum pH in an acidic region (optimum pH is pH of 5.5 to 6.5); an optimum pH in a neutral region (optimum pH is pH of 6.5 to 7.5 or 6.5 to 8.5); and an optimum pH in an alkaline region (optimum pH is pH of 7.0 to 8.5 or 7.5 to 9.0).
The optimum pH of the enzymes of the present invention was determined by: mixing 5 μl of a reaction solution (200 mM phosphate buffer (pH 5.0 to 9.0), 2% of NADPH, and 1% of scyllo-inosose) with 5 μl of an enzyme solution; and allowing the mixture to react at 36° C. for 30 min. After the reaction, 500 μl of water was immediately added thereto, and the absorbance at 340 nm was measured. From the blank value of a test solution prepared by using water instead of the enzyme solution, the decrease in the absorbance at 340 nm was measured. The enzyme solution was diluted as required.

[2] = Substrate specificity of scyllo-inositol dehydrogenase (relative activity of oxidation, absorbance at 545 nm); settings: relative to reactivity to scyllo-inositol, NADP^+, pH 8.0, 25° C.
Experimental: Examples of an inositol isomer include scyllo-inositol (SI), myo-inositol (MI), D-chiro-inositol (DCI), L-chiro-inositol (LCI), epi-inositol (EI), muco-inositol (MuI), allo-inositol (AI), and neo-inositol (NI).
The inositol isomers include scyllo-inositol (SI), myo-inositol (MI), D-chiro-inositol (DCI), L-chiro-inositol (LCI), epi-inositol (EI), muco-inositol (MuI), allo-inositol (AI), and neo-inositol (NI).
The reaction rate was calculated from the absorbance increments at the respective times.

[3] = Km values of scyllo-inositol dehydrogenase for scyllo-inosose (reciprocal plot); settings: NADPH, pH 8.0, 36° C.
Experimental: The determination is carried out such that the Km value is calculated after reciprocal plot according to the general method.
After the reaction, […] of water was immediately added thereto, and the absorbance at 340 nm was measured. From the blank value of a test solution prepared by using water instead of the enzyme solution, the decrease in the absorbance at 340 nm was measured. The enzyme solution was diluted as required. The Km values were calculated by the reciprocal plot.

[4] = Enzyme reaction product of scyllo-inosose reduction measured by HPLC; settings: for share of scyllo-inositol in the product of scyllo-inosose reduction: 10 mg scyllo-inosose, 40 mg NADPH, 10 U enzyme, 36° C., 4 hours, myo-inositol not detected; for Reduction reaction product: SIS: scyllo-inosose, SI: scyllo-inositol
Experimental: Meanwhile, the enzyme reaction product was measured as follows: 10 mg of scyllo-inosose, 40 mg of NADPH, and 10 U of the enzyme were allowed to react in 1.0 ml of 100 mM Tris buffer (pH 8.0) at 36° C. for 4 hours, and a heat treatment was performed at 80° C. for 10 min, followed by cooling. Then, 100 μl of a strong base cation exchange resin, 100 μl of a strong acid anion exchange resin, and 10 mg of activated carbon were added, and the mixture was stirred and centrifuged. Then, the supernatant was diluted 2-fold, and measurement was performed by HPLC (Shodex Asahipak NH2P-50 4E Φ 4.6×250 mm: Shodex) using an RI detector under the condition of a column temperature of 40° C. and a mobile phase flow rate of 1.5 ml (80% acetonitrile). […] Meanwhile, the sequence of the ydgJ gene is shown in SEQ ID NO: 1, and the amino acid sequence corresponding thereto is shown in SEQ ID NO: 2.
Meanwhile, enzyme reaction product was measured as follows: 10 mg of scyllo-inosose, 40 mg of NADPH, and 10 U of the enzyme were allowed to react in 1.0 ml of 100 mM Tris buffer (pH 8.0) at 36° C. for 4 hours, and a heat treatment was performed at 80° C. for 10 min, followed by cooling. Then, 100 μl of a strong base cation exchange resin, 100 μl of a strong acid anion exchange resin, and 10 mg of activated carbon were added, and the mixture was stirred and centrifuged. Then, the supernatant was diluted 2-fold, and measurement was performed by HPLC (Shodex Asahipak NH2P-50 4E Φ 4.6×250 mm: Shodex) using an RI detector under conditions of a column temperature of 40° C. and a mobile phase flow rate of 1.5 ml (80% acetonitrile).

[5] = Effects of heavy metal on scyllo-inositol dehydrogenase; settings: 2 mM heavy metal in reaction solution; no addition group = 100%
Experimental: Effects by the heavy metals can be confirmed by: mixing 5 μl of a reaction solution (200 mM Tris buffer of pH 8.0 containing 2% of NADPH, 1% of scyllo-inosose, and 2 mM metal salt) and 5 μl of an enzyme solution; allowing the mixture to react at 36° C. for 30 minutes; adding 500 μl of water immediately after the completion of the reaction; determining the absorbance at 340 nm; and determining a decrease in the absorbance at 340 nm with respect to a blank value of a test solution containing water instead of the enzyme solution. The term “activated” means the case where the enzymatic activity of a fraction added with 1 mM of a heavy metal is 105% or more, preferably 120% or more, with respect to the enzymatic activity of a fraction added with no heavy metal as 100%. On the other hand, the term “inhibited” means the case where the enzymatic activity of the fraction added with 1 mM of a heavy metal is 95% or less, preferably 70% or less, with respect to the enzymatic activity of the fraction added with no heavy metal as 100%.
The effects of heavy metal on the enzymes of the present invention were determined by: mixing 5 μl of a reaction solution (200 mM Tris buffer (pH 8.0), 2% of NADPH, 1% of scyllo-inosose, and 2 mM of a heavy metal) with 5 μl of an enzyme solution; and allowing the mixture to react at 36° C. for 30 min. After the reaction, 500 μl of water was immediately added thereto, and the absorbance at 340 nm was measured. From the blank value of a test solution prepared by using water instead of the enzyme solution, the decrease in the absorbance at 340 nm was measured. The enzyme solution was diluted as required. CaCl2, CoCl2, ZnSO4, MgSO4, SnCl2, NiCl2, and MnSO4 were used as metallic salts. The activity of the no addition group was defined as 100%, and the relative activities were compared. […] Most of the enzymes were inhibited in the presence of Zn^2+ ion, in contrast, the enzyme derived from Bacillus subtilis 168 was activated in the presence of Zn^2+ ion.

| Molecule | Optimum pH [1] | Substrate specific Relative activity (20 to 70%) [2] | Substrate specific Relative activity (70% or more) [2] | Substrate specific Relative activity (less than 20%) [2] | Km [3] [mM] | share of scyllo-inositol in the product of scyllo-inosose reduction [4] [%] | Reduction reaction product [4] | Heavy metal effects: activation [5] | Heavy metal effects: strong inhibition [5] |
| --- | --- | --- | --- | --- | --- | --- | --- | --- | --- |
| B1 | pH 7.0-8.5 | MuI | SI, MI, DCI, EI, LCI | AI, NI | 2.6 | 100 | Only SIS → SI | Co, Mn, Ca | Sn, Zn |
| B2 | pH 7.5-9.0 | LCI, EI, MuI | SI, MI, DCI | AI, NI | 3.9 | 100 | Only SIS → SI | Co | Sn, Zn |
| B3 | pH 6.5-8.5 | LCI, MuI | SI, MI, DCI, EI | AI, NI | 9.2 | 100 | Only SIS → SI | Co, Mn | Sn, Zn |

Reference: US8409833B2 (Hokko Chemical Industry Co., Ltd., priority 2003, dated 2013)
